In article PMC5457524, “An engineered high affinity Fbs1 carbohydrate binding protein for selective capture of N-glycans and N-glycopeptides” (Nature Communications, 2017):

B1: SNAP-Fbs1 fusion protein (wild-type human Fbs1 sugar-binding domain, residues 92-296) [human] / fetuin [modified: sialylated complex N-linked glycans; sialylated complex N-linked glycans] [not stated] (parent)
chain 1: CQQEGLVPEGGVEEERDHWQQFYFLSKRRRNLLRNPCGEEDLEGWCDVEHGGDGWRVEELPGDSGVEFTHDESVKKYFASSFEWCRKAQVIDLQAEGYWEELLDTTQPAIVVKDWYSGRSDAGCLYELTVKLLSEHENVLAEFSSGQVAVPQDSDGGGWMEISHTFTDYGPGVRFVRFEHGGQDSVYWKGWFGARVTNSSVWVEP
chain 2: IPLDPVAGYKEPACDDPDTEQAALAAVDYINKHLPRGYKHTLNQIDSVKVWPRRPTGEVYDIEIDTLETTCHVLDPTPLANCSVRQQTQHAVEGDCDIHVLKQDGQFSVLFTKCDSSPDSAEDVRKLCPDCPLLAPLNDSRVVHAVEVALATFNAESNGSYLQLVEISRAQFVPLPVSVSVEFAVAATDCIAKEVVDPTKCNLLAEKQYGFCKGSVIQKALGGEDVRVTCTLFQTQPVIPQPQPDGAEAEAPSAVPDAAGPTPSAAGPPVASVVVGPSVVAVPLPLHRAHYDLRHTFSGVASVESSSGEAFHVGKTPIVGQPSIPGGPVRLCPGRIRYFKI

Variants of: B1
Assay: fetuin bead pulldown, SDS-PAGE quantified by ImageJ
Conditions: with fetuin [modified: sialylated complex N-linked glycans, E. coli cell lysate containing the same amount of wt Fbs1 or variant Fbs1 fusion protein, parent: 1, read off a plot

ratio to parent	Variant
1.7 fold change	chain 1 D63P S64P
2.5 fold change	chain 1 D63P S64P G65S
